Key:
Assay in all cases: HPLC product assay, Michaelis-Menten fit
Type in all cases: biochemical, Citrus maxima
[1] = substrate: COc1ccc(-c2cc(=O)c3c(O)cc(O)cc3o2)cc1O; details: 1 mM UDP-glucose, 50 mM PBS pH 7.0, 35 °C
[2] = substrate: COc1ccc([C@@H]2CC(=O)c3c(O)cc(O)cc3O2)cc1O; details: 1 mM UDP-glucose
[3] = substrate: O=C1C[C@@H](c2ccc(O)cc2)Oc2cc(O)cc(O)c21; details: 1 mM UDP-glucose
[4] = substrate: O=c1c(O)c(-c2ccc(O)cc2)oc2cc(O)cc(O)c12; details: 1 mM UDP-glucose
[5] = substrate: COc1ccc(-c2cc(=O)c3c(O)cc(O)cc3o2)cc1O; details: 1 mM UDP-glucose, 50 mM PBS pH 7.0, 35 °C; remark: listed apart in the source
Excerpt: (§1) HPLC product assay, Michaelis-Menten fit on CgUGT89AK1

[6] = substrate: O=C1C[C@@H](c2ccc(O)c(O)c2)Oc2cc(O)cc(O)c21; details: 1 mM UDP-glucose, 50 mM PBS pH 7.0, 35 °C
Excerpt: as §1

[7] = substrate: O=C1C[C@@H](c2ccc(O)cc2)Oc2cc(O)cc(O)c21; details: 1 mM UDP-glucose, 50 mM PBS pH 7.0, 35 °C
Excerpt: as §1

[8] = substrate: O=c1c(O)c(-c2ccc(O)c(O)c2)oc2cc(O)cc(O)c12; details: 1 mM UDP-glucose, 50 mM PBS pH 7.0, 35 °C
Excerpt: as §1

[9] = substrate: O=c1cc(-c2ccc(O)cc2)oc2cc(O)cc(O)c12; details: 1 mM UDP-glucose, 50 mM PBS pH 7.0, 35 °C
Excerpt: as §1

[10] = substrate: O=c1cc(-c2ccc(O)cc2)oc2cc(O)cc(O)c12; details: 1 mM UDP-glucose

B1: CgUGT90A31 (Citrus maxima) (protein)
chain: MGSISSDHHVVLFPFMSKGHIIPILNLVQLLLRRPRVTVTVFTTPANRPFTSKFLSNSSTAACSIIDIPYPENVPEIPAGVESTDKLPSMSLYVPFTRATKLMQPHFERALESLPRVSFMVSDGFLWWTLDSANKFGFPRLVFYGMNNYAMSVSRSVGQNRLLSGVQSDDELLTLPEFPWIKITKKDFDSPITDPEPKGPHFELFIDQIVSTSNSHGMIVNSFYELEPLFADHCNRVGKPKSWCVGPLCLAELPPKNEEPKNELSKPAWIKWLDRKLDEGSSVMYVAFGSQAEISAQQLKEIAIGLEQSKVNFLWVIRTAQSELGDGFEERVKGRGLVVRDWVDQNEILWHGSVQGFLSHCGWNSTLESICAGVPILAWPMMAEQPLNARMVTEEIKVGLRVETCDGSVRGFVKWRGLEKTMRELMGGEKGEKARTKVKELSEIARKAMEEGKGSSWRCLDMLLDETCKLEQHD
- Km [1]: 34.93 ± 10.80 µM
- kcat/Km [1]: 15.8 M⁻¹ s⁻¹
- Km ([2]; 50 mM PBS pH 7.0, 35 °C): 179.10 ± 48.24 µM
- kcat/Km ([2]; 50 mM PBS pH 7.0, 35 °C): 51.4 M⁻¹ s⁻¹
- Km ([3]; 50 mM PBS pH 7.0, 35 °C): 139.04 ± 40.50 µM
- kcat/Km ([3]; 50 mM PBS pH 7.0, 35 °C): 52 M⁻¹ s⁻¹
- Km ([4]; 50 mM PBS pH 7.0, 35 °C): 56.20 ± 19.14 µM
- kcat/Km ([4]; 50 mM PBS pH 7.0, 35 °C): 6.48 M⁻¹ s⁻¹

B2: CgUGT89AK1 (Citrus maxima) (protein)
chain: MLPAGAHILVYPFPTSGHIIPLLDLTNRLLTLGLNVTVLITQNNLPLLDSLNANHPSTSLQSLVLPQPKWPAGSPATRLLKFMRVLRELHYPALLDWFKSHPSPPVAILSDFFLGWTQGLAAELGLPRVVFSPSGAFALSVSFAMWTDLPTNDDPDNVDALVSFPRVPNCPVYHWYQISHLYRTLKEGDPDWDLHRSNMMANKTSWGIVFNSFAELERVYIDHMKKEMGHDRVWAVGPVLPPDDDLVESMCRGGSSSVPAHDVLTWLDSRRDESVVYVCFGSRYVLTAKQIHELAAALEKTDVDFVYCVREPDERHASQDCGVLPDGFEDRVAGRGYVIRGWSQQVAILRHKAVGAFLTHCGWNSVLEGVSAGVVMLTWPMDADQYTNAQLLVDQLGVGIRVGEGTRNIPESGELARLLAQSVDGPRRERLKARELSGAALSAVVKGGSSDRDLNDFIKRINELKSGKNLTAV
- Km [5]: 6.16 ± 2.64 µM
- kcat/Km [5]: 284 M⁻¹ s⁻¹
- Km [6]: 26.25 ± 5.65 µM
- kcat/Km [6]: 154 M⁻¹ s⁻¹
- Km [7]: 52.88 ± 17.30 µM
- kcat/Km [7]: 48.3 M⁻¹ s⁻¹
- Km [8]: 19.44 ± 11.00 µM
- kcat/Km [8]: 1350 M⁻¹ s⁻¹
- Km [9]: 24.37 ± 5.03 µM
- kcat/Km [9]: 107 M⁻¹ s⁻¹

B3: CgUGT89D30 (Citrus maxima) (protein)
chain: MSSSNTRTTHILIFPYPAQGHMLPLLDLTHQLSLKDLDITILVTPKNLPILSPLLDAHPAIKTLVLPFPSHPSIPPGIENVRELGNRGNYPIMTALGKLYGPIIDWFRSQANPPVAILSDFFLGWTLKLAHQLNIVRIAFFSSGWLLASVVDYCWHHIGDVKSLDVVEFPDLPRYPVFKRRHLPSMVRSYKESDPESQFVKDGNLANTSSWGCVFNSFDALEGEYSDYLKRKMGHDRVFGVGPLSLVGLESTGGGDPGLGPNDHVTKWLDGCPDGSVVYVCFGSQKALKRDQMEALASGLEKSGIRFLWVVKTGMIGKGDDGYGSMPDGFEEQVAGRGLVLKGWAPQVSILSHKAVGGFLSHCGWNSLLEGIVGGAMILAWPMEADQFVNAKLLVEDLGVAVQVCEGADSVPDSDELGNIIAESLSQRDEVKIKAKELRDDALAAVKSDGSSARDLDRLVEELRNLHAK
- Km ([2]; 50 mM PBS pH 7.0, 30 °C): 207.41 ± 77.33 µM
- kcat/Km ([2]; 50 mM PBS pH 7.0, 30 °C): 11 M⁻¹ s⁻¹
- Km ([3]; 50 mM PBS pH 7.0, 30 °C): 79.57 ± 5.51 µM
- kcat/Km ([3]; 50 mM PBS pH 7.0, 30 °C): 18.1 M⁻¹ s⁻¹
- Km ([4]; 50 mM PBS pH 7.0, 30 °C): 35.76 ± 18.07 µM
- kcat/Km ([4]; 50 mM PBS pH 7.0, 30 °C): 21.9 M⁻¹ s⁻¹
- Km ([10]; 50 mM PBS pH 7.0, 30 °C): 17.34 ± 10.85 µM
- kcat/Km ([10]; 50 mM PBS pH 7.0, 30 °C): 88.2 M⁻¹ s⁻¹

B4: CgUGT73AC12 (Citrus maxima) (protein)
chain: MDSKSSPVEMFFFPYVGGGHQIPMVDIARIFAAHGAKSTIITSPKHALSFQKSINRNQQSGLPITIKTLHLPDDIEIPDTDMSATPRTDTSMLQKPLKSLLLDSRPDCIVHDMFHHWSADVINSMNIPRIVFNGNCCFSRCVLENVRKYKPHEKVSSDYEPFVVPGLPDKIELTSSQLPVGARQQEAGSVHKMFAKPEEKSFGIVVNSFYDLEPAYVEYFKQDLGNDKAWFVGPVSLCNRNIEDKAERGQKTSIDEGKILSFLDSKETNSVLYISFGSLARLAPEQLLEIAYGLEASNHSFIWVVGKIFQSPGTRKENGIEENWLPSGFEERMRESKRGLIIRGWAPQLLILEHAAVGGFMTHCGWNSTLESVSAGVPMVTWPITAEQFSNEKLISDVLKIGVKVGSVNWVSWSTEPSAAVGRDKVEVAVKRLMGTGEEAAEMRRRAGELGEKAKNAVEEGGSSFIDAEALLQELKSLSRI
- Km ([2]; 50 mM PBS pH 7.0, 35 °C): 169.68 ± 54.77 µM
- kcat/Km ([2]; 50 mM PBS pH 7.0, 35 °C): 5.62 M⁻¹ s⁻¹
- Km ([3]; 50 mM PBS pH 7.0, 35 °C): 105.34 ± 35.62 µM
- kcat/Km ([3]; 50 mM PBS pH 7.0, 35 °C): 6.36 M⁻¹ s⁻¹
- Km ([4]; 50 mM PBS pH 7.0, 35 °C): 92.58 ± 55.02 µM
- kcat/Km ([4]; 50 mM PBS pH 7.0, 35 °C): 11 M⁻¹ s⁻¹
- Km ([10]; 50 mM PBS pH 7.0, 35 °C): 153.66 ± 62.17 µM
- kcat/Km ([10]; 50 mM PBS pH 7.0, 35 °C): 5.93 M⁻¹ s⁻¹

— PMC11165160, “Four novel Cit7GlcTs functional in flavonoid 7-O-glucoside biosynthesis are vital to flavonoid biosynthesis shunting in citrus” (Horticulture Research, 2024)
